Source: PMC9299187
Like-named read-outs stand apart in the source and are kept apart here.

Experiments:
[1] = biological target: Chimera‐Short (human DHFR‐TYMS bifunctional chimeric enzyme with 10 amino acid linker) (human); experiment: SEC; Superdex 200 10/300, 0.1 M K-phosphate pH 7.5, calibrated with protein standards; IMAC fractions of the Chimera constructs
[2] = biological target: Chimera‐Long (human DHFR‐TYMS bifunctional chimeric enzyme with 20 amino acid linker) (human); experiment: as above
[3] = biological target: Chimera‐Long (human DHFR‐TYMS bifunctional chimeric enzyme with 20 amino acid linker) (human); experiment: SPR; Chimera-Long amine-coupled on a COOH2 chip (735 RU on Ch1, 175 RU on Ch3), SHMT1 as analyte 2.66-85 uM, 25 °C, 10 mM Hepes pH 7.4, 150 mM NaCl, 0.005% Tween-20; 1 : 1 bimolecular interaction model
[4] = biological target: Chimera‐Long (human DHFR‐TYMS bifunctional chimeric enzyme with 20 amino acid linker) (human); experiment: as above; remark: listed apart in the source
[5] = biological target: Chimera‐Long (human DHFR‐TYMS bifunctional chimeric enzyme with 20 amino acid linker) (human); experiment: BLI; Chimera held by mouse anti-DHFR on a Protein-A biosensor, SHMT1 as analyte 1-30 uM, kinetic titration series, kinetic buffer, 25 °C; two-exponential fit, heterogeneous binding model with two binding events

Chimera‐Short (human DHFR‐TYMS bifunctional chimeric enzyme with 10 amino acid linker)
stoichiometry N [1]: 2

Chimera‐Long (human DHFR‐TYMS bifunctional chimeric enzyme with 20 amino acid linker)
stoichiometry N [2]: 2

B1: serine hydroxymethyltransferase (SHMT1), purified recombinant, tetrameric (enzyme)
chain: DADLWSSHDKMLAQPLKDSDVEVYNIIKKESNRQRVGLELIASENFASRAVLEALGSCLNNKYSEGYPGQRYYGGTEFIDELETLCQKRALQAYKLDPQCWGVNVQPYSGSPANFAVYTALVEPHGRIMGLDLPDGGHLTHGFMTDKKKISATSIFFESMPYKVNPDTGYINYDQLEENARLFHPKLIIAGTSCYSRNLEYARLRKIADENGAYLMADMAHISGLVAAGVVPSPFEHCHVVTTTTHKTLRGCRAGMIFYRKGVKSVDPKTGKEILYNLESLINSAVFPGLQGGPHNHAIAGVAVALKQAMTLEFKVYQHQVVANCRALSEALTELGYKIVTGGSDNHLILVDLRSKGTDGGRAEKVLEACSIACNKNTCPGDRSALRPSGLRLGTPALTSRGLLEKDFQKVAHFIHRGIELTLQIQSDTGVRATLKEFKERLAGDKYQAAVQALREEVESFASLFPLPGL
Kd [3]: 2.5 µM | koff [3]: 0.0025 s⁻¹ | kon [3]: 470 M⁻¹ s⁻¹ | Kd [4]: 2.9 µM | KD, binding 1 [5]: 16.4 µM | KD, binding 2 [5]: 13.5 µM | koff, binding 1 [5]: 0.2 s⁻¹ | koff, binding 2 [5]: 0.02 s⁻¹ | kon, binding 1 [5]: 14000 M⁻¹ s⁻¹ | kon, binding 2 [5]: 1600 M⁻¹ s⁻¹
